From article PMC5986797, “Laminin heparin-binding peptides bind to several growth factors and enhance diabetic wound healing” (Nature Communications, 2018)

Legend:
[1] = molecular target: laminin peptide LAMA3_(3043–3067) (human) (UniProt Q16787)
[2] = molecular target: laminin peptide LAMA5_(3417–3436) (human) (UniProt O15230)
[3] = molecular target: recombinant human laminin-521 (human) (UniProt O15230); assay: SPR; laminin-521 immobilised by amine coupling on a C1 chip (~2000 RU); GF flown at 20 μL/min in 0.01 M HEPES pH 7.4, 0.15 M NaCl, 0.005% surfactant P20; Langmuir binding kinetics
[4] = molecular target: recombinant laminin LAMA3_(2928–3150) protein (human) (UniProt Q16787); assay: SPR; LAMA3 2928–3150 immobilised by amine coupling on a C1 chip (~1000 RU); GF flown at 20 μL/min in 0.01 M HEPES pH 7.4, 0.15 M NaCl, 0.005% surfactant P20; Langmuir binding kinetics
Sequence of recombinant laminin LAMA3_(2928–3150) protein (human) (Q16787 2928-3150): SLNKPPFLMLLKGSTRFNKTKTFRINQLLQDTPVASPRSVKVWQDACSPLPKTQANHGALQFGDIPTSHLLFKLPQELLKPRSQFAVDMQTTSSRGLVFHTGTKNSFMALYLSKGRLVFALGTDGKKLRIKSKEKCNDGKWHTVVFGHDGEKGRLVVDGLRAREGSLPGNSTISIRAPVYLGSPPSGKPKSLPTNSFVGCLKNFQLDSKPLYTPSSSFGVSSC

Sequence of laminin peptide LAMA5_(3417–3436) (human) (O15230 3417-3436): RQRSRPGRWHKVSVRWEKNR
Sequence of laminin peptide LAMA3_(3043–3067) (human) (Q16787 3043-3067): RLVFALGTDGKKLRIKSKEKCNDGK

cumulative release of VEGF-A165 after 5 days from a fibrin matrix with covalently incorporated α2PI1–8-LAMA3 (3043–3067) (without peptide >85% released after 24 h) [1]: 25%
cumulative release of VEGF-A165 after 5 days from a fibrin matrix with covalently incorporated α2PI1–8-LAMA5 (3417–3436) (without peptide >85% released after 24 h) [2]: 31%
Kd [3]: 5.8 nM
Kd [4]: 1.2 nM
Substance: vascular endothelial cell growth factor VEGF-A165 (ligand)
